Here are results for 1 molecule from PMC6627233 (The EMBO Journal, 2019).

The experiment concerns the target Flag-tagged MAVS (UniProt Q7Z434 1-540). The experiment is described as follows: far-Western, overlay or dot blot.

Sequence of Flag-tagged MAVS (Q7Z434 whole entry): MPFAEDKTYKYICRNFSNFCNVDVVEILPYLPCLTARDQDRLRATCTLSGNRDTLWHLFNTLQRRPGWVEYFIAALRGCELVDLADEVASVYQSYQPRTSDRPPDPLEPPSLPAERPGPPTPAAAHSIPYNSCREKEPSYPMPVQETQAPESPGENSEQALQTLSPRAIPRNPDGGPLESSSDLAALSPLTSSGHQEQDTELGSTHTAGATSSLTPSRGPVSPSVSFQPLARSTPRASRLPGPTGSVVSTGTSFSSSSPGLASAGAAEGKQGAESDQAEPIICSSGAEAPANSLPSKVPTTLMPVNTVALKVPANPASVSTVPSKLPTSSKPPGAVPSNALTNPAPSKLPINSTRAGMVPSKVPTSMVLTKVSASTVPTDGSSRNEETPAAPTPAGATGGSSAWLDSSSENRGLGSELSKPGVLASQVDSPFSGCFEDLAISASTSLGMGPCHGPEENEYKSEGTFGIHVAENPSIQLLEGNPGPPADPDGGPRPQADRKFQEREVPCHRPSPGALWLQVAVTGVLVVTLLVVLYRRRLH

B1: GST-tagged RNF34 (natural protein)
chain: MKAGATSMWASCCGLLNEVMGTGAVRGQQSAFAGATGPFRFTPNPEFSTYPPAATEGPNIVCKACGLSFSVFRKKHVCCDCKKDFCSVCSVLQENLRRCSTCHLLQETAFQRPQLMRLKVKDLRQYLILRNIPIDTCREKEDLVDLVLCHHGLGSEDDMDTSSLNSSRSQTSSFFTRSFFSNYTAPSATMSSFQGELMDGDQTSRSGVPAQVQSEITSANTEDDDDDDDEDDDDEEENAEDRNPGLSKERVRASLSDLSSLDDVEGMSVRQLKEILARNFVNYSGCCEKWELVEKVNRLYKENEENQKSYGERLQLQDEEDDSLCRICMDAVIDCVLLECGHMVTCTKCGKRMSECPICRQYVVRAVHVFKS
B1: the binding result is given as “binds”.
